Molecular target: T1, modified human HLA-G β2M MHC class I complex (HLA-G specific amino acids replaced by HLA-A consensus amino … (human))
T1 construct: also called degrafted HLA-G
Test: SPR (Biacore T200), antibody captured, HLA-G complex injected

binding result: no binding (tested: 2.5 up to 800 nM)
B1: HLA-G-0032 (antibody, V domains shown)
VH: QVQLQQSGAELVKPGSSVKISCKASGYSFPSYDMHWIKQQPGNGLEWIGWIYPGNGNTKYNQKFNGKASLTADKSSSTAYMQLSSLTSEDSAVYFCAKPTVATRYNWFAYWGQGTLVTVSS
VL: QIVLTQSPALMSASPGEKVTMTCSASSSVNYMHWYQQKPRSSPKPWIYLTSNLASGVPARFSGSGSGTSYSLTISTMEAEDAATYYCQQWSSNLPITFGSGTKLEIK
